Experimental findings from patent publication US20190275081A1 (published 2019) are described below.

For assay [1], the target named is T1, NY-ESO-1 peptide on HLA-A*02:01 (human).
T1 peptide: SLLMWITQC
Briefly: killing.

Assay [2] has as its target T1, NY-ESO-1 peptide on HLA-A*02:01. Briefly: cytokine release.

B1: 19305DP (TCR, V domains shown)
Valpha: SQQGEEDPQALSIQEGENATMNCSYKTSINNLQWYRQNSGRGLVHLILIRSNEREKHSGRLRVTLDTSKKSSSLLITASRAADTASYFCATDGGGTLTFGKGTMLLVSP
Vbeta: DAGVIQSPRHEVTEMGQEVTLRCKPISGHDYLFWYRQTMMRGLELLIYFNNNVPIDDSGMPEDRFSAKMPNASFSTLKIQPSEPRDSAVYFCASKWGGTEAFFGQGTRLTVV
Take B1: the binding result in assay [1] is “recognises”.

B2: AL (TCR, V domains shown)
Valpha: QKEVEQNSGPLSVPEGAIASLNCTYSDRGSQSFFWYRQYSGKSPELIMSIYSNGDKEDGRFTAQLNKASQYVSLLIRDSQPSDSATYLCAVGGLTSSNTGKLIFGQGTTLQVKP
Vbeta: DVKVTQSSRYLVKRTGEKVFLECVQDMDHENMFWYRQDPGLGLRLIYFSYDVKMKEKGDIPEGYSVSREKKERFSLILESASTNQTSMYLCASSNQIYGYTFGSGTRLTVV
Consider B2, for which the binding result in assay [1] is listed as “recognises”.

B3: JD (TCR, V domains shown)
Valpha: QKEVEQNSGPLSVPEGAIASLNCTYSDRGSQSFFWYRQYSGKSPELIMFIYSNGDKEDGRFTAQLNKASQYVSLLIRDSQPSDSATYLCAVGATNKLIFGTGTLLAVQP
Vbeta: EAGVTQFPSHSVIEKGQTVTLRCDPISGHDNLYWYRRVMGKEIKFLLHFVKESKQDESGMPNNRFLAERTGGTYSTLKVQPAELEDSGVYFCASSQAYGTEAFFGQGTRLTVV
Take B3: the binding result in assay [2] is recorded as “recognises”.
